In patent CN109678957A:

Biological target: 人重组TSLP蛋白 (recombinant human TSLP protein from E. coli GDMCC No:60083) (human) (UniProt Q969D9)
Assay: ELISA, dilution series of the antibody on TSLP antigen protein (Fig. 4)

Chain of UniProt Q969D9 (Q969D9 29-159 limits assumed): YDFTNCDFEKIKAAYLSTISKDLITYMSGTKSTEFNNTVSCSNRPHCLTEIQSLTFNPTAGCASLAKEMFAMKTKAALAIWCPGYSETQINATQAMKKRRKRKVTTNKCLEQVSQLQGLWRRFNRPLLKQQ

- 效价 (titer, dilution fold at which OD is more than 2 times the negative control) (倍 (dilution fold)): 655000
B1: 抗人TSLP单克隆抗体 (anti-human TSLP monoclonal antibody, from hybridoma ascites, Example 3) (antibody, IgG1, V domains shown)
VH: QIQLVQSGPELKKPGETVKISCKASGYTFTNYGMNWVKQAPGKGLKWMGWINTYTGEPTYADDFKGRFAFSLETSASTAYLQINNLKNEDMATYFCARGLTGTRGRFAYWGQGTLVTVSA
VL: DIVMTQSHKFMSTSVGDRVSITCKASQDVSTAVAWYQQKPGQSPKLLIYWASTRHTGVPDRFTGSGSGTDYTLTISSVQAEDLALYYCQQHYSTPPTFGGGTKLEIK
